# Assay results published in US20190263934A1.
# Columns and labels:
# [1] = molecular target: biotinylated hFcRn (human) (UniProt P55899); assay: SPR Biacore, pH 6.0
# rFcRn (rat) [2] = molecular target: rFcRn (rat) (UniProt P13599); assay: SPR Biacore, pH 6.0
# [3] = molecular target: biotinylated hFcRn (human) (UniProt P55899); assay: SPR Biacore, pH 7.4
# rFcRn (rat) [4] = molecular target: rFcRn (rat) (UniProt P13599); assay: SPR Biacore, pH 7.4
# [5] = molecular target: biotinylated human FcRn (hFcRn; p51 subunit residues 24-297 with C-terminal Avi-tag, β2-m residues 21-119) (human) (UniProt P55899); assay: Biacore SPR; pH 6.0 affinity (M^-1) over pH 7.4 steady state RU
# [6] = molecular target: biotinylated human FcRn (hFcRn; p51 subunit residues 24-297 with C-terminal Avi-tag, β2-m residues 21-119) (human) (UniProt P55899); assay: Biacore SPR, pH 7.4, steady state, 1000 nM antibody
# [7] = molecular target: biotinylated human FcRn (hFcRn; p51 subunit residues 24-297 with C-terminal Avi-tag, β2-m residues 21-119) (human) (UniProt P55899); assay: Biacore SPR, pH 6.0, apparent affinity
# [8] = molecular target: biotinylated human FcRn (hFcRn; p51 subunit residues 24-297 with C-terminal Avi-tag, β2-m residues 21-119) (human) (UniProt P55899); assay: Biacore SPR; second ratio column (inverse of c7)
# rFcRn (rat), sequence (P13599 23-298 limits assumed, form in doubt, chain 1 of 2): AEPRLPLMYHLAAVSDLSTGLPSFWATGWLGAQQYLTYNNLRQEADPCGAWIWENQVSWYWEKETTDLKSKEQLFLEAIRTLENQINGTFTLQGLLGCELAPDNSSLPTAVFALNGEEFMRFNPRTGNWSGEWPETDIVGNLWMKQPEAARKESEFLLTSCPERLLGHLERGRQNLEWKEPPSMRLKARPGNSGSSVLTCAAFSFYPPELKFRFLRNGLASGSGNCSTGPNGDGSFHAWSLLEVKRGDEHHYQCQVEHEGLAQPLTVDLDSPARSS
# rFcRn (rat), sequence (P07151 21-119 limits assumed, form in doubt, chain 2 of 2, further chain): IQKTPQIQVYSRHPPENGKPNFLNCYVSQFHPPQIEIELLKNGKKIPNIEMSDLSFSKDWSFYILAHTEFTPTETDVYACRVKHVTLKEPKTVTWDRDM
Ratio (pH 6.0/pH 7.4) [5],"Steady State Binding, pH 7.4 (RU) [6] [RU]",Ka [7] [M⁻¹],Ratio (pH 6.0/pH 7.4) [8],Ratio (pH 7.4/pH 6.0) [8],Substance,further results
–,–,–,–,–,mAb1 T307W/N434Y (antibody),Kd [1]: 21.5 nM; koff [1]: 0.0317 s⁻¹; kon [1]: 1.48e+06 M⁻¹ s⁻¹; Kd (rFcRn (rat) [2]): 0.62 nM; koff (rFcRn (rat) [2]): 0.0003 s⁻¹; kon (rFcRn (rat) [2]): 480000 M⁻¹ s⁻¹; Steady State RU [3]: 37.2 RU; Steady State RU (rFcRn (rat) [4]): 69.6 RU
–,–,–,–,–,mAb1 T307Q/N434F (antibody),Kd [1]: 42.9 nM; koff [1]: 0.0246 s⁻¹; kon [1]: 574000 M⁻¹ s⁻¹; Kd (rFcRn (rat) [2]): 3.89 nM; koff (rFcRn (rat) [2]): 0.0004 s⁻¹; kon (rFcRn (rat) [2]): 104000 M⁻¹ s⁻¹; Steady State RU [3]: 34.2 RU; Steady State RU (rFcRn (rat) [4]): 62.5 RU
681000,34.2,2.33e+07,1.47e-06,–,mAb1 MTQF variant (T307Q/N434F) (antibody),–
92100,69.6,6.41e+06,–,1.09e-05,mAb1 YEWN variant (M252Y/T256E/T307W) (antibody),–
201000,18.3,3.68e+06,4.97e-06,–,mAb1 LS variant (M428L/N434S) (antibody),–
859000,30.5,2.62e+07,1.16e-06,–,mAb1 MTWF variant (T307W/N434F) (antibody),–
549000,23.3,1.28e+07,1.82e-06,–,mAb1 METF variant (T256E/N434F) (antibody),–
–,–,2e+06,–,–,mAb1 MEQN variant (T256E/T307Q) (antibody),–
617000,38.6,2.38e+07,–,1.62e-06,mAb1 MEQY variant (T256E/T307Q/N434Y) (antibody),–
–,–,–,–,–,mAb1 T256E/T307Q (antibody),Kd [1]: 499 nM; Kd (rFcRn (rat) [2]): 10.7 nM; Steady State RU (rFcRn (rat) [4]): 23.4 RU
533000,15.9,8.47e+06,–,1.88e-06,mAb1 YTWN variant (M252Y/T307W) (antibody),–
120000,55.3,6.62e+06,–,8.35e-06,mAb1 MDQF variant (T256D/T307Q/N434F) (antibody),–
40400,13.9,562000,2.47e-05,–,mAb1 AAA variant (T307A/E380A/N434A) (antibody),–
1.25e+06,37.2,4.65e+07,8e-07,–,mAb1 MTWY variant (T307W/N434Y) (antibody),–
1.48e+06,22.6,3.34e+07,–,6.77e-07,mAb1 YETY variant (M252Y/T256E/N434Y) (antibody),–
513000,57.7,2.96e+07,–,1.95e-06,mAb1 YDTF variant (M252Y/T256D/N434F) (antibody),–
1.14e+06,29.2,3.34e+07,8.74e-07,–,mAb1 MDTF variant (T256D/N434F) (antibody),–
797000,9.8,7.81e+06,–,1.25e-06,mAb1 YETN variant (M252Y/T256E) (antibody),–
302000,15.2,4.59e+06,–,3.31e-06,mAb1 YEQN variant (M252Y/T256E/T307Q) (antibody),–
1.51e+06,46.6,7.04e+07,–,6.62e-07,mAb1 MEWY variant (T256E/T307W/N434Y) (antibody),–

Ratio (pH 6.0/pH 7.4) [5],"Steady State Binding, pH 7.4 (RU) [6] [RU]",Ka [7] [M⁻¹],Ratio (pH 6.0/pH 7.4) [8],Ratio (pH 7.4/pH 6.0) [8],Substance,further results
1.04e+06,62.6,6.54e+07,–,–,mAb1 YTWF variant (M252Y/T307W/N434F) (antibody),Ratio (pH 7.4 steady-state RU / pH 6.0 affinity) [8]: 9.57e-07
340000,10.6,3.6e+06,–,–,mAb1 YTQN variant (M252Y/T307Q) (antibody),Ratio (pH 7.4 steady state RU / pH 6.0 affinity) [8]: 2.94e-06
597000,26.8,1.6e+07,1.68e-06,–,mAb1 METY variant (T256E/N434Y) (antibody),–
1.27e+06,43.8,5.56e+07,–,7.88e-07,mAb1 YTTF variant (M252Y/N434F) (antibody),–
1.1e+06,9.7,1.07e+07,9.07e-07,–,mAb1 YDTN variant (M252Y/T256D) (antibody),–
885000,71.5,6.33e+07,–,1.13e-06,mAb1 YTQY variant (M252Y/T307Q/N434Y) (antibody),–
747000,49.4,3.69e+07,–,1.34e-06,mAb1 MDQY variant (T256D/T307Q/N434Y) (antibody),–
597000,47.1,2.81e+07,–,1.68e-06,mAb1 MDWF variant (T256D/T307W/N434F) (antibody),–
–,–,3.1e+06,–,–,mAb1 MEWN variant (T256E/T307W) (antibody),–
1.34e+06,41.9,5.62e+07,–,7.46e-07,mAb1 MEWF variant (T256E/T307W/N434F) (antibody),–
221000,13.2,2.92e+06,4.52e-06,–,mAb1 YTE variant (M252Y/S254T/T256E) (antibody),–
–,–,142000,–,–,mAb1 MEQF variant (T256E/T307Q/N434F) (antibody),–
805000,38.4,3.09e+07,1.24e-06,–,mAb1 MTQY variant (T307Q/N434Y) (antibody),–
485000,12.2,5.92e+06,2.06e-06,–,mAb1 MDWN variant (T256D/T307W) (antibody),–
390000,25.9,1.01e+07,–,2.56e-06,mAb1 YDWN variant (M252Y/T256D/T307W) (antibody),–
943000,59.9,5.65e+07,–,1.06e-06,mAb1 YTQF variant (M252Y/T307Q/N434F) (antibody),–
403000,10.7,4.31e+06,2.48e-06,–,mAb1 MDQN variant (T256D/T307Q) (antibody),–
–,–,–,–,–,mAb1 T256E/T307W (antibody),Kd [1]: 323 nM; Kd (rFcRn (rat) [2]): 10.6 nM; Steady State RU (rFcRn (rat) [4]): 33 RU
1.73e+06,37.1,6.41e+07,5.79e-07,–,mAb1 MDTY variant (T256D/N434Y) (antibody),–
439000,19.8,8.7e+06,–,2.28e-06,mAb1 YDQN variant (M252Y/T256D/T307Q) (antibody),–
